From patent US20240261333A1 (published 2024) come the findings set out here.

The target in experiment [1] is T1, KTN1 (human, UniProt Q86UP2 1-1357).
T1 construct: also called NP_001072989.1 (+5)
T1 sequence (looked up): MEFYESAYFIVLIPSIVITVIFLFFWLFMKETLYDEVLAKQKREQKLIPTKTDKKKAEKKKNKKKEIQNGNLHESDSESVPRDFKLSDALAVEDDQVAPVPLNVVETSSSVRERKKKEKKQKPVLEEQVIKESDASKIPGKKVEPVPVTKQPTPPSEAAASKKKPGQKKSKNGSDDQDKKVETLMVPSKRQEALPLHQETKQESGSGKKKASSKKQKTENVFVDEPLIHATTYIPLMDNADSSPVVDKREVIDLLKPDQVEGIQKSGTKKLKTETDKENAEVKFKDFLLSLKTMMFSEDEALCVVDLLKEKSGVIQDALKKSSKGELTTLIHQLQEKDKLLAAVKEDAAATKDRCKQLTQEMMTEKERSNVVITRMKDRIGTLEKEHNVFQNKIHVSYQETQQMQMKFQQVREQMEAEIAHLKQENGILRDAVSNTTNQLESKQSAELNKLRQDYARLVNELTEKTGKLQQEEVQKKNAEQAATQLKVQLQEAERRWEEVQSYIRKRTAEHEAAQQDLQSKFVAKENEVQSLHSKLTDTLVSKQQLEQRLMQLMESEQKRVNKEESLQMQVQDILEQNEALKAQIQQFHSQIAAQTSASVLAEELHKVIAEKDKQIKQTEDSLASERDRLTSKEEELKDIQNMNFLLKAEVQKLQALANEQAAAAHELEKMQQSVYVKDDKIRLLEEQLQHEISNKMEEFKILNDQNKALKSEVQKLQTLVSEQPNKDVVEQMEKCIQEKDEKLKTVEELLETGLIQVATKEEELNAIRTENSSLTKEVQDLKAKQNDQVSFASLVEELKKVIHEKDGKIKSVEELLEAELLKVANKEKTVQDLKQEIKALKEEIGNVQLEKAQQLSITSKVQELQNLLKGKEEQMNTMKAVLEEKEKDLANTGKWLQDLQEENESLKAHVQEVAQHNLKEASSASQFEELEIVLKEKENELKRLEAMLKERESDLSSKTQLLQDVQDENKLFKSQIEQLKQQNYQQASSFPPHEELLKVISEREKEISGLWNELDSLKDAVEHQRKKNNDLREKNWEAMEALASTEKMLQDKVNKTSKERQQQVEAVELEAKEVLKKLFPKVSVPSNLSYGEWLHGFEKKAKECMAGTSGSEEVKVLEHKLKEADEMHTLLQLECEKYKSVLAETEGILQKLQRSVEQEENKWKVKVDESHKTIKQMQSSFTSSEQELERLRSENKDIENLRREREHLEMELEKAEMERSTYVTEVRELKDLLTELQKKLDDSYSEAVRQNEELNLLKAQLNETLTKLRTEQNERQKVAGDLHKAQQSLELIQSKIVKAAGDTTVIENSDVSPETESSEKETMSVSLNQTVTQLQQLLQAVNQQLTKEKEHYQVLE
The experiment can be described thus: anti-FLAG co-IP from lysate of N-FLAG B3GNT2 cells, mass spectrometry. The protocol: (§1) Cells were plated in 10-cm cell culture dishes and grown to 60-80% confluency. For each condition, two biological replicates were harvested for co-IP. Cells were washed with PBS and 4 mL of lysis buffer (20 mM HEPES, 1% Triton X-100, 150 mM NaCl, 1 mM EDTA, and 10% glycerol) containing protease inhibitor cocktail was added. Cells were scraped and lysate was incubated at 4° C. under rotary agitation for 1 h. Lysate was centrifuged at 14,000×g for 10 min at 4° C. Supernatant was transferred to a new tube and an aliquot was taken as the input. […] For Western blots, 10 μg/mL Chicken Anti-FLAG (Aves labs ET-DY100) and IgY control (R&D Systems AB-101-C) antibodies were biotinylated (Thermo Fisher Scientific 90407) and added to the respective conditions. Lysates with antibodies were incubated at 4° C. under rotary agitation overnight. For each mL of lysate, 50 μL of Pierce Protein A/G Magnetic Beads (Mass spectrometry; Thermo Fisher Scientific 88803) or Pierce Streptavidin Magnetic Beads (Western blot; Thermo Fisher Scientific 88817) was washed twice with lysis buffer. Lysates with antibodies were added to the beads and incubated at 4° C. under rotary agitation for 4 h. Beads were washed with lysis buffer 3 times and resuspended in lysis buffer for storage.
(§2) Magnetic beads were resuspended in 100 mM Tris pH 7.8, reduced, alkylated and digested with trypsin at 37° ° C. overnight. This solution was subjected to solid phase extraction to concentrate the peptides and remove unwanted reagents followed by injection onto a Shimadzu HPLC with fraction collector. Eight fractions were collected and after concentration were injected on a Waters NanoAcquity HPLC equipped with a self-packed Aeris 3 μm C18 analytical column 0.075 mm by 20 cm, (Phenomenex). Peptides were eluted using standard reverse-phase gradients. The effluent from the column was analyzed using a Thermo Orbitrap Elite mass spectrometer (nanospray configuration) operated in a data dependent manner for 54 minutes. The resulting fragmentation spectra were correlated against the known database using Proteome Discover 1.4 (Thermo Fisher Scientific).

In experiment [2] the target is T2, TRAFD1 (human, UniProt O14545 2-582).
T2 construct: also called NP_006691.1
T2 sequence (looked up): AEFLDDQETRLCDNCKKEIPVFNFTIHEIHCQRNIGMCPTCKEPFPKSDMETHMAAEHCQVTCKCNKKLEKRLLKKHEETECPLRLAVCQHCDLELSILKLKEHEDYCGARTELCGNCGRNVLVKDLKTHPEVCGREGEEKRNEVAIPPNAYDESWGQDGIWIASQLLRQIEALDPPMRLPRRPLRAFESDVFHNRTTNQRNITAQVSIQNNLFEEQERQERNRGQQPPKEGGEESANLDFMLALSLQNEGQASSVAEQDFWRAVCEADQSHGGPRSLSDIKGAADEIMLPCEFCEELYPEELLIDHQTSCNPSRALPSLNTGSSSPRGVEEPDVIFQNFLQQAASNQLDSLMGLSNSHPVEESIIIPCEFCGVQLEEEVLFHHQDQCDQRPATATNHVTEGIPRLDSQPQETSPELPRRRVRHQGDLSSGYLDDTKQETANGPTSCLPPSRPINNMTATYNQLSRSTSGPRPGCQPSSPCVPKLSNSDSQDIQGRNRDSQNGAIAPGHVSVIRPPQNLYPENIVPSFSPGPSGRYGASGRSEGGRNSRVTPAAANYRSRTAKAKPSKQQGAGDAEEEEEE
Described as above. As for the experimental part: as §1, §2

B1: N-terminal FLAG tagged B3GNT2 (enzyme, human, UniProt Q9NY97 1-397, looked up)
chain: MSVGRRRIKLLGILMMANVFIYFIMEVSKSSSQEKNGKGEVIIPKEKFWKISTPPEAYWNREQEKLNRQYNPILSMLTNQTGEAGRLSNISHLNYCEPDLRVTSVVTGFNNLPDRFKDFLLYLRCRNYSLLIDQPDKCAKKPFLLLAIKSLTPHFARRQAIRESWGQESNAGNQTVVRVFLLGQTPPEDNHPDLSDMLKFESEKHQDILMWNYRDTFFNLSLKEVLFLRWVSTSCPDTEFVFKGDDDVFVNTHHILNYLNSLSKTKAKDLFIGDVIHNAGPHRDKKLKYYIPEVVYSGLYPPYAGGGGFLYSGHLALRLYHITDQVHLYPIDDVYTGMCLQKLGLVPEKHKGFRTFDIEEKNKNNICSYVDLMLVHSRKPQEMIDIWSQLQSAHLKC
notes: Bait of the co-IP; pulled down from cell lysate with mouse anti-FLAG antibody; also called N-FLAG B3GNT2; N-term FLAG; not shown: N-terminal FLAG tag
Turning to B1, the “co-IP mass spectrometry count” value in experiment [1] and in experiment [2] was 0 throughout.
